Experimental data published in patent publication CN116284408A (SUNSHINE GUOJIAN PHARMACEUTICAL SHANGHAI CO LTD, dated 2023).

Assays:
人MUC17-Fc蛋白 [1] = molecular target: T1, 人MUC17-Fc蛋白 (human, UniProt Q685J3 4131-4390); assay: ELISA, MUC17-Fc coated, murine antibody titrated
T1 construct: range 4131-4390; No linker is described; also called MUC17抗原; not shown: C-terminal Fc tag

[2] = molecular target: MUC17 on LS174T colorectal cancer cells (human, UniProt Q685J3 26-4493); assay: flow cytometry on LS174T cells, murine antibody titrated; design: Top: unit not given here
人MUC17-Fc蛋白 [3] = molecular target: T1, 人MUC17-Fc蛋白; assay: ELISA, coated MUC17 antigen, antibody titrated
人MUC17-Fc蛋白 [4] = molecular target: T1, 人MUC17-Fc蛋白; assay: ELISA, coated MUC17 antigen, chimeric antibody titrated
[5] = molecular target: T2, MUC17 on LS174T colorectal cancer cells (human, UniProt Q685J3 26-4493); assay: flow cytometry on LS174T cells, chimeric antibody titrated
[6] = molecular target: T2, MUC17 on LS174T colorectal cancer cells; assay: flow cytometry on LS174T cells, murine antibody titrated; design: Top: unit not given here; remark: listed apart in the source
[7] = molecular target: T2, MUC17 on LS174T colorectal cancer cells; assay: flow cytometry on LS174T cells

| Binder | EC50 (人MUC17-Fc蛋白 [1]) [µg/mL] | Top (人MUC17-Fc蛋白 [1]) [OD450] | EC50 [2] [µg/mL] | Top [2] | EC50 (人MUC17-Fc蛋白 [3]) [nM] | EC50 (人MUC17-Fc蛋白 [4]) [nM] | EC50 [5] [nM] | EC50 [6] [µg/mL] | EC50 [7] [nM] |
| --- | --- | --- | --- | --- | --- | --- | --- | --- | --- |
| 8H2 (antibody, V domains shown) VH: EVNLVESGGGLVKPGGSLKLSCAASGFAFSNYDMSWVRQTPEKRLEWVATISGGGSYTYYPDNVKGRFTISRDNAMNTLYLQMSSLRSEDTALYYCASVNWGFPYWGQGTLVTVSA VL: DIVMSQSPSSLAVSIGEKVTMSCKSSQSLLYSRNQKNYLAWYQQKPGQSPILLIYWTSTRESGVPDRFTGSGSGTDFTLTISGVKAEDLAVYYCQQYYTSPWTFGGGTRLEIK | 0.0556 | 2.74 | 0.164 | 445 |  |  |  |  |  |
| 45D1 (antibody, V domains shown) VH: EMQLVESGGDLVKPGGSLKLSCAVSGFTFSTYDMSWIRQTPDKRLEWVATISSGGSYTYYPDSVKGRFTISRDNAKNTLYLQMSSLQSEDTAIYYCASLNWGFDHWGQGTTLTVSS VL: not shown | 0.036 | 2.87 | 0.273 | 457 |  |  |  |  |  |
| 27A3 (antibody, V domains shown, Mouse monoclonal antibody from a hybridoma, purified on Protein G; also called 鼠源抗体27A3; 杂交瘤抗体27A3) VH: QVQLQQPGAELVRPGASVKLSCKASGYSFTIYWMHWVKQRPGQGLEWIGMSHPSDSESRLNQKFKDKATLTVDKSSSTAYMQLSSPTSEDSAVYYCSRPYYGSSAWFADWGQGTLVTVSA VL: DIVMTQSPSSLAMSVGQKVTMSCKSSQSLLNSSNQKNYLAWYQQKPGQSPKLLIYFASTRESGVPDRFIGSGSGTDFTLSISSVQAEDLADYFCQQHYSFPLTFGAGTKLELR | 0.0202 |  |  |  |  |  |  | 0.00656 |  |
| 11C8 (antibody, V domains shown) VH: QVQLKESGPGLVAPSQSLSITCTVSGFSLTAYGVHWVRQPPGKGLEWLGGIWAGGSTQSNSALMSRLSISKDSSKSQVFLRMNSLQTDDSAMYYCARALFYGNFDVWGAGTTVTVSS VL: DIVMTQSQKFMSTSVGDRVSVTCKASQSVDTSVAWYQQRPGQSPEALIFSASYRYSGVPDRFTGSGSGTDFTLTINNVQSEDLAEYFCQQYNSYPYTFGGGTNLEIK | 0.108 | 2.25 | 0.87 | 469 |  |  |  |  |  |
| 50A5 (antibody, V domains shown) VH: QVQLKESGPGLVAPSQSLSITCTVSGFSLTAYGVHWVRQPPGKGLEWLGGIWAGGNTQSHSALMSRLTISKDISKSQVFLRMNSLQTDDSAMYYCARALFYGNFDVWGAGTTVTVSS VL: DIVMTQSQRFMSTSVGDRVSVTCKASQSVDTSVAWYQQRPGQSPEALIFSASYRYSGVPDRFTGSGSGTDFTLTISNVQSEDLAEYFCQQYNSYPYTFGGGTNLEIK | 0.0813 | 2.64 | 0.542 | 500 |  |  |  |  |  |
| ch-19E11 (antibody, human IgG1, kappa, V domains shown, also called 嵌合抗体ch-19E11) VH: EVQLQQSGPELEKPGASVKISCKASGFSFTGYNMNWVKQSNGKSLEWIGNIDPYYGGTTYNQKFKGKATLTVDISSSTAHMELKSLTSEDSAVYFCARSVTTVGYPMDYWGQGTSVTVSS VL: DIVMTQSPSSLAMSVGQKVTMNCKSSQSLLNSYNHKNCLAWYQQKPGQSPKLLISFASARESGVPDRFIGSGSGTDFTLTISSVQAEDLADYFCHQHYTSPLTFGAGTKLELKR |  |  |  |  | 0.14 | 0.14 |  |  |  |
| 19E11 (antibody, V domains shown, Mouse monoclonal antibody from a hybridoma, purified on Protein G; also called 鼠源抗体19E11; 杂交瘤抗体19E11) VH: EVQLQQSGPELEKPGASVKISCKASGFSFTGYNMNWVKQSNGKSLEWIGNIDPYYGGTTYNQKFKGKATLTVDISSSTAHMELKSLTSEDSAVYFCARSVTTVGYPMDYWGQGTSVTVSS VL: DIVMTQSPSSLAMSVGQKVTMNCKSSQSLLNSYNHKNCLAWYQQKPGQSPKLLISFASARESGVPDRFIGSGSGTDFTLTISSVQAEDLADYFCHQHYTSPLTFGAGTKLELK | 0.0376 |  |  |  |  |  |  | 0.024 |  |
| 51E12 (antibody, V domains shown) VH: QVQLQQSGPELVKPGASVKISCKVSGNAFSLSWMNWVKQRPGQGLEWIGRIYPGDGDSNYNGKFKGKATLTADKSSSTVFMQLSSLTSVDSAVYFCANYYGSSSWFVYWGQGTLVTVSA VL: DVVMTQTPLSLPVSLGDQASISCRSSQSLVHSYGNTYLHWYLQKPGQSPKLLIYKVSNRFSGVPDRFSGSGSGTDFTLKISRVETEDLGVYFCSQSTHFPWTFGGGTKLEIK | 0.0372 | 2.88 | 0.0472 | 878 |  |  |  |  |  |

More lines, now with the values ahead:

| EC50 (人MUC17-Fc蛋白 [1]) [µg/mL] | Top (人MUC17-Fc蛋白 [1]) [OD450] | EC50 [2] [µg/mL] | Top [2] | EC50 (人MUC17-Fc蛋白 [3]) [nM] | EC50 (人MUC17-Fc蛋白 [4]) [nM] | EC50 [5] [nM] | EC50 [6] [µg/mL] | EC50 [7] [nM] | Binder |
| --- | --- | --- | --- | --- | --- | --- | --- | --- | --- |
|  |  |  |  | 0.0785 | 0.0785 | 0.0435 |  |  | ch-27A3 (antibody, human IgG1, kappa, V domains shown, also called 嵌合抗体ch-27A3) VH: QVQLQQPGAELVRPGASVKLSCKASGYSFTIYWMHWVKQRPGQGLEWIGMSHPSDSESRLNQKFKDKATLTVDKSSSTAYMQLSSPTSEDSAVYYCSRPYYGSSAWFADWGQGTLVTVSA VL: DIVMTQSPSSLAMSVGQKVTMSCKSSQSLLNSSNQKNYLAWYQQKPGQSPKLLIYFASTRESGVPDRFIGSGSGTDFTLSISSVQAEDLADYFCQQHYSFPLTFGAGTKLELRR |
| 0.0276 | 1.97 | 0.11 | 296 |  |  |  |  |  | 56E8 (antibody, V domains shown) VH: QVQLKESGPGLVAPSQSLSITCTVSGFSLTAYGVHWVRQPPGKGLEWLGGIWAGGSTKSNSALMSSLSISKDNSKSQVFLKMNSLQTDDSAMYYCARALFYGYFDVWGAGTTVTVSS VL: DIVMTQSQKFMSTSVGDRVSVTCKASQSVDTNVAWYQQRPGQSPEALIFSASYRYSGVPDRFTGSGSGTDFTLTISNVQSEDLAEYFCQQYNVYPYTFGGGTNLEIK |
| 0.0623 | 2.88 | 0.395 | 460 |  |  |  |  |  | 23F6 (antibody, V domains shown) VH: QVQLKESGPGLVAPSQSLSITCTVSGFSLTAYGVHWVRQPPGKGLEWLGGIWAGGNTQSHSALMSRVSISKDISKRQVFLKMDRLQTDDSAIYYCARALFYGNFDVWGAGTTVTVSS VL: DIVMTQSQRFMSTSVGDRVSVTCKASQSVDTSVAWYQQRPGQSPEALIFSASYRYSGVPDRFTGSGSGTDFTLTISNVQSEDLAEYFCQQYNSYPYTFGGGTNLEMR |
| 0.0317 | 2.79 | 3.43 | 382 |  |  |  |  |  | 15D10 (antibody, V domains shown) VH: QVQLQQPGAELVKPGASVKMSCKASGYTFTTYWMHWVKQRSGQGLEWIGVIDPSDSYTRYNQKFKDKATLTVDTSSSTAYMHLTSLTSEDSAVYYCTRSGIGNSFIMDYWGQGTSVTVSS VL: QVVLTQSPAIMPAFPGEKVTISCSASSSVIYMFWYQQKPGSSPKPWIYRTSNLASGVPARFTGSGSGTSYSLTISSMEAEDAATYYCQQYHSYPLTFGVGTKLELK |
|  |  |  |  | 0.0766 |  |  |  | 0.03 | hu-27A3 (antibody, human IgG1, kappa, V domains shown, Humanized IgG1/kappa, made in HEK-293E cells; also called 27A3人源化抗体; 人源化后的27A3) VH: QVQLVQSGAEVKKPGASVKVSCKASGYSFTIYWMHWVRQAPGQGLEWIGMSHPSDSESRLNQKFKDRATLTVDKSTSTAYMELSSLRSEDTAVYYCSRPYYGSSAWFADWGQGTLVTVSA VL: DIVMTQSPDSLAVSLGERATINCKSSQSLLNSSNQKNYLAWYQQKPGQSPKLLIYFASTRESGVPDRFSGSGSGTDFTLTISSLQAEDVAVYYCQQHYSFPLTFGAGTKLELRR |
|  |  |  |  | 0.131 |  |  |  | 0.085 | hu-19E11 (antibody, human IgG1, kappa, V domains shown, Humanized IgG1/kappa, made in HEK-293E cells; also called 19E11人源化抗体; 人源化后的19E11) VH: QVQLVQSGAEVKKPGASVKVSCKASGFSFTGYNMNWVRQAPGQSLEWIGNIDPYYGGTTYNQKFKGRATLTVDISISTAYMELSRLRSDDTAVYFCARSVTTVGYPMDYWGQGTSVTVSS VL: DIVMTQSPDSLAVSLGERATINCKSSQSLLNSYNHKNCLAWYQQKPGQSPKLLISFASARESGVPDRFSGSGSGTDFTLTISSLQAEDVAVYFCHQHYTSPLTFGAGTKLELKR |
